Publication PMC11195132
Read-outs that look alike come from different tables or passages of the source.

Assays:
[1] = target: tSH2 domain of SYK (residues M6-N269) fused to an N-terminal 6xHis tag (UniProt P43405); assay: FRET or BRET
[2] = target: tSH2 domain of SYK (residues M6-N269) fused to an N-terminal 6xHis tag (UniProt P43405); assay: FRET or BRET; remark: listed apart in the source

unlabeled FCER1G-phospho-peptide (from UniProt P30273 54-82)
IC50 [1]: 5 nM
IC50 [2]: 5 nM
